Test results: US10849966B2, “Methods for treating netosis and neutrophil activation” (TRUSTEES OF BOSTON UNIVERSITY, priority 2017, dated 2020)
Read-outs that look alike come from different tables or passages of the source.

Experiments:
[1] = tested on: pancreatic peritoneal metastatic tumors; experiment: combination anti-DEspR mAb and gemcitabine in rats with pancreatic peritoneal metastatic tumors; type: in vivo; settings: per rat
Method: FIG. 36 depicts representative images of tumor treated rats with combination anti-DEspR mAb and gemcitabine vs gemcitabine alone, and mock-treated saline controls. GEM tx: gemcitabine treatment (100 mg/kg/dose iv×2). Hu-6g8 or ABTM-468: humanized anti-DEspR mAb treatment 1 mg/kg/dose iv×1/week×2. Combo-tx: combination therapy. Saline mock Tx: mock.
The observations of anti-DEspR/gemcitabine synergy supports the potential of anti-DEspR mAb therapy to be a compelling partner for combination with checkpoint inhibitors. […] The paradigm of unique combinatorial synergy was further tested in vivo. […] Moreover, there was no ascites in ComboTx-rats. Gut distention from gut-dysfunction is also evident in saline mock-treated (Tx) control. (FIG. 36).
Importantly, metastasis to the liver and retroperitoneal space, and ascites were all prevented/inhibited by ComboTx.

[2] = tested on: LPS-activated neutrophils; experiment: ex vivo survival of LPS-activated neutrophils; type: cell-based, rat; settings: vs control non-treated activated neutrophils, P<0.0001; listed as 6g8
From the text: FIGS. 2A-2B depict DEspR expression on rat activated neutrophils and anti-DEspR inhibition of activated neutrophil survival. FIG. 2A) FACS analysis of CD11b activated neutrophils that are DEspR+(bold oval), and DEspR[−] (bold circle). Quiescent neutrophils are DEspR[−] and CD11B[−] in Quadrant Q4. FIG. 2B depicts inhibition of the extended survival of activated neutrophils by two different anti-DEspR mAbs targeting two different epitopes on DEspR.
DEspR is expressed on activated human neutrophils (FIG. 1A) and in neutrophils undergoing NETosis (FIG. 1C-D), in contrast to isotype control (FIG. 1B). Anti-DEspR mAb detects DEspR expression on rat LPS-activated neutrophils (FIG. 2A). […] Majority of CD11b activated neutrophils are DEspR+(Red bold circle) in contrast to CD11b+ but DEspR(−) (yellow circle) activated neutrophils (FIG. 2A).
Briefly, this anti-DEspR approach is supported by experimental data as outlined below: • 1. Validation of DEspR as target. DEspR is expressed on activated human neutrophils (FIG. 1A,1C,1D). Anti-DEspR immunostaining specificity is shown by no signal in isotype control neutrophils (FIG. 1B). Most human neutrophils undergoing NETosis are DEspR+ (FIG. 1C-1D). NETs (neutrophil extracellular traps) are associated with organ microthrombi in MOF and directly induce endothelial and epithelial cell death,^56 all of which are pathogenic events in ARDS. • 2. […]

[3] = tested on: activated neutrophils; experiment: dose-response survival assay of activated neutrophils (Trypan blue dye exclusion); type: cell-based; settings: for IC50: live cells counted by Trypan blue dye exclusion, read-out: IC50, inhibition of activated neutrophil survival
From the text: FIG. 6 depicts a graph comparison of functional activity of anti-DEspR fully humanized 6g8 mAb, 6g8-humab, and prototype murine anti-DEspR 6g8 mAb, 6g8-mumab.
(§1) FIGS. 17A-17C depict anti-DEspR-mab (hu6g8 mab). FIG. 17A depicts a diagram of DEspR, murine precursor mabs and humanized IgG and IgG4 mabs. Hu6g8 is notated as 6g8g7-hu-IgG4 raised against epitope 2, spanning the putative binding domain.
Described herein are the advantages of anti-DEspR mAb targeted AECs. DEspR, the dual endothelin1/signal peptide receptor,^9 is a validated target on human activated neutrophils and NETs. Hu6g8 binds human activated neutrophils (FIG. 18A) and NETs (FIG. 18B), as confirmed by Western Blot analysis of DEspR protein in human kidney (K), and activated neutrophil samples, act-Ns (FIG. 18C). Humanized anti-DEspR-mab (hu6g8 mab) is an ideal targeting moiety. Hu6g8 is the multi-species Human/NHPrimate/Rat reactive humanized-deimmunized anti-DEspR-mab with a hinge-stabilized IgG4S228P/kappa Fc region (FIG. 17A) to avoid (ADCC-antibody dependent cell-mediated cytotoxicity, CDC-complement dependent cytotoxicity), and to eliminate loss of targeting upon Fab arm exchange typical of native IgG4 isotype. […] Through recombinant DNA technology, the antibody design incorporates: a) avoidance of T-cell epitopes for low immunogenicity; b) optimization of heavy and light chain interactions for stability of variable domains; and, c) exclusion of destabilizing post-translational modification sites [e.g., deamidation, oxidation]. The targeting of DEspR^+ NETs, but sparing of DEspR(−) quiescent neutrophils via the anti-DEspR mAb is also novel. […] The use of human neutrophil-elastase cleavable linker is advantageous as this connector-peptide can be added by recombinant technology and HNE is enriched on NETs and actually a reason for the injurious properties of NETs. HNE is desirable for local therapeutic delivery [Owen C A, Campbell E J. J Leukocyte Biol 1999, 65 (2) 137-150], has specificity for small uncharged amino acids particularly alanine (A) and valine (V) [Meers P. Adv Drug Delivery Rev. 2001. 53 (3) 265-272]. […] The advantages of all three in an AEC is novel and robust as the targeted delivery and release of DNAse 1 on NETs can attain in vivo efficacy of what has been shown in vitro, the induction of macrophage uptake-and-clearance of NETs upon DNAse 1 digest of NETs DNA. In summary, targeting the intravascular NETs sites. The humanized anti-DEspR-mab with a hinge-stabilized IgG4/kappa Fc region to avoid Fab arm exchange in vivo and ensuing loss of targeting was selected. Additionally, this avoids immune effector functions of IgG1 mAbs (ADCC, CDC), which would worsen endothelial injury. […]

[4] = biological target: T1, DEspR on intact human cells (Homo sapiens, UniProt B0L3A2); experiment: hu6g8 binding to DEspR on intact human cells; settings: done in triplicate
T1 construct: endogenous in cells; host or cells: intact human cells / 'DEspR+ human cells'
T1 sequence (B0L3A2 1-85): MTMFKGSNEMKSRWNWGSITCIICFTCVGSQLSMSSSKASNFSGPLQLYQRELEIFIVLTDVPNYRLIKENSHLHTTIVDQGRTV
From the text: as §1
Described herein is the development, characterization, and validation of a fully humanized anti-DEspR mAb with a S228P hinge-stabilized IgG4/kappa FC region, designated herein as hu-6g8 or […]. The hu-6g8 was designed for high binding affinity to DEspR+ human cells and inhibition of activated neutrophil survival. hu-6g8 is reactive in all species, having identical epitopes in human, primates and rodents, which facilitates preclinical and clinical studies using the therapeutic lead. […] (FIG. 6). Through recombinant DNA technology, hu-6g8 was designed with optimal biophysical properties via: a) avoidance of T-cell epitopes for low immunogenicity—‘deimmunized’, b) optimization of heavy and light chain interactions for stability of variable domains, and c) exclusion of destabilizing post-translational modification sites [deamidation, oxidation, acid-lability, inappropriate N-glycosylation, isomerization and pyroglutamate formation].
Described herein are the advantages of anti-DEspR mAb targeted AECs. DEspR, the dual endothelin1/signal peptide receptor,^9 is a validated target on human activated neutrophils and NETs. […]

[5] = tested on: LPS-induced hemorrhagic encephalopathy in stroke prone rats; experiment: LPS-induced hemorrhagic encephalopathy / multi-organ failure rat model; type: in vivo
From the text: FIG. 3A) control rat brain after PBS-buffer perfusion to eliminate intravascular blood.
FIG. 4 depicts a survival curve analysis of anti-DEspR treated rats compared with non-treated rats in a rat model of LPS-induced multi-organ failure manifesting predominantly as hemorrhagic encephalopathy (phenotype corroborated in FIG. 3A-3F).
Neutrophil-mediated tissue injury has been implicated in blood brain barrier disruption or injury.
The murine precursor anti-DEspR antibody, 6g8-mumab, was studied in a rat model of LPS-induced hemorrhagic encephalopathy as a paradigm of multi-organ failure (MOF) in ARDS and sepsis (FIG. 3A-3F).
It was also determined whether anti-DEspR can increase survival of rats in a LPS-induced hemorrhagic encephalopathy MOF rat model.

`Nc1ccn([C@@H]2O[C@H](CO)[C@@H](O)C2(F)F)c(=O)n1` [GEM, gemcitabine] was tested, and the Ascites volume [1] was 1.5 mls, the “Tumor weight (g) Greater Omentum” value [1] was 1.6351 g and the Ascites ([1]; GEM 100 mg/kg/dose iv×2, hu-6g8 1 mg/kg/dose iv×1/week×2) was “Bloody”.

B1: 6g8-mumab: murine precursor anti-DEspR antibody, pan-species reactive anti-Human/Rat/Monkey DEspR mAb (antibody, V domains shown)
VH: GSEVQLQESGGGLVQPGGSLKLSCAASGFDFSRYWMSWVRQAPGKGLEWIGEINPDSSTINYTPSLKDKFIISRDTAKKTLYLQMSKVRSEDTALYYCARHGRGMDYWSQGTSVTVSSAKTTPPSVYGGGGS
VL: GGGGSDIVLTQTNQIMSASVGDRVSVTCKASQNVDSNVAWYQQKPGHSPKALIYSASYRYSRVPDRITGSGSGTDFTLTITNVQSKDLADYFCQQYHSYPLLAFGAGTKLELKRADAAPTVSLE
In the case of B1, the “survival of activated neutrophils ex vivo” value [2] is reported as “decreased their survival”, the IC50 ([3]; listed as mu-6g8) is reported as > 198 nM and the IC50 [3] is reported as > 200 nM. For the same molecule, the “IC50, inhibition of activated neutrophil survival” value ([3]; maximum dose used in the dose-response survival assay) was > 30 µg/mL, the EC50 [4] was 178 nM and the “progression to hemorrhagic encephalopathy” value ([5]; single dose 1 mg/kg/dose iv after LPS) was “attenuated the progression to life-threatening hemorrhagic encephalopathy”. For the same molecule, the “murine IgG levels in brain (ELISA of brain membrane proteins)” value ([5]; treated rat brains, target engagement) was “greater brain levels than anti-DEspR 10a3”, the “neutrophil myeloperoxidase (MPO) levels in the brain (ELISA)” value ([5]; vs non-treated LPS brains) was “decreased myeloperoxidase levels” and the “rat albumin levels in the brain (ELISA), brain edema” value ([5]; vs non-treated LPS brains) was “decreased albumin levels”.
